Measurements reported in IntAct's records for PubMed 35512704.

B1: Mothers against decapentaplegic homolog 4 (Homo sapiens), Q13485 (parent)
chain: MDNMSITNTPTSNDACLSIVHSLMCHRQGGESETFAKRAIESLVKKLKEKKDELDSLITAITTNGAHPSKCVTIQRTLDGRLQVAGRKGFPHVIYARLWRWPDLHKNELKHVKYCQYAFDLKCDSVCVNPYHYERVVSPGIDLSGLTLQSNAPSSMMVKDEYVHDFEGQPSLSTEGHSIQTIQHPPSNRASTETYSTPALLAPSESNATSTANFPNIPVASTSQPASILGGSHSEGLLQIASGPQPGQQQNGFTGQPATYHHNSTTTWTGSRTAPYTPNLPHHQNGHLQHHPPMPPHPGHYWPVHNELAFQPPISNHPAPEYWCSIAYFEMDVQVGETFKVPSSCPIVTVDGYVDPSGGDRFCLGQLSNVHRTEAIERARLHIGKGVQLECKGEGDVWVRCLSDHAVFVQSYYLDREAGRAPGDAVHKIYPSAYIKVFDLRQCHRQMQQQAATAQAAAAAQAAAVAGNIPGPGSVGGIAPAISLSAAAGIGVDDLRRLCILRMSFVKGWGPDYPRQSIKETPCWIEIHLHRALQLLDEVLHTMPIADPQPLD
partner: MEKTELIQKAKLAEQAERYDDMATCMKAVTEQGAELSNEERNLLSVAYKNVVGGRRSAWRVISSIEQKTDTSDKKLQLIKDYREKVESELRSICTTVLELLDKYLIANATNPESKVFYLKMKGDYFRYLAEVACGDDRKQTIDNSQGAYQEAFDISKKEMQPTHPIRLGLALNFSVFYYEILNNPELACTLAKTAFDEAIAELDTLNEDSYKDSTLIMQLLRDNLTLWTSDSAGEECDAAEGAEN
B2: Mothers against decapentaplegic homolog 4 (Homo sapiens), Q13485 (parent)
chain: B1 chain
partner: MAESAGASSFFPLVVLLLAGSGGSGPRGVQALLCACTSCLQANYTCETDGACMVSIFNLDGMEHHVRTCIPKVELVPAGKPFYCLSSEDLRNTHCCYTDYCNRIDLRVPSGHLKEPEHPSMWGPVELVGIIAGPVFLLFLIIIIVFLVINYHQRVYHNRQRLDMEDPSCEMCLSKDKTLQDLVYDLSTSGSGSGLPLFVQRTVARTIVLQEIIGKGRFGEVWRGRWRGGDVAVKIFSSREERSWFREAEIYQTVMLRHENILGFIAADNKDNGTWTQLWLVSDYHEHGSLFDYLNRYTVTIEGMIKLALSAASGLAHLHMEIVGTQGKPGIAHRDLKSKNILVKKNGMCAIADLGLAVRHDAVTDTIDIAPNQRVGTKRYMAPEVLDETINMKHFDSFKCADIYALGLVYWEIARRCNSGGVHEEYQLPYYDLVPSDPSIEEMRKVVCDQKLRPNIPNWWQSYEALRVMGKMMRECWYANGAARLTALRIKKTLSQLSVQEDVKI
B3: Mothers against decapentaplegic homolog 4 (Homo sapiens), Q13485 (parent)
chain: B1 chain
partner: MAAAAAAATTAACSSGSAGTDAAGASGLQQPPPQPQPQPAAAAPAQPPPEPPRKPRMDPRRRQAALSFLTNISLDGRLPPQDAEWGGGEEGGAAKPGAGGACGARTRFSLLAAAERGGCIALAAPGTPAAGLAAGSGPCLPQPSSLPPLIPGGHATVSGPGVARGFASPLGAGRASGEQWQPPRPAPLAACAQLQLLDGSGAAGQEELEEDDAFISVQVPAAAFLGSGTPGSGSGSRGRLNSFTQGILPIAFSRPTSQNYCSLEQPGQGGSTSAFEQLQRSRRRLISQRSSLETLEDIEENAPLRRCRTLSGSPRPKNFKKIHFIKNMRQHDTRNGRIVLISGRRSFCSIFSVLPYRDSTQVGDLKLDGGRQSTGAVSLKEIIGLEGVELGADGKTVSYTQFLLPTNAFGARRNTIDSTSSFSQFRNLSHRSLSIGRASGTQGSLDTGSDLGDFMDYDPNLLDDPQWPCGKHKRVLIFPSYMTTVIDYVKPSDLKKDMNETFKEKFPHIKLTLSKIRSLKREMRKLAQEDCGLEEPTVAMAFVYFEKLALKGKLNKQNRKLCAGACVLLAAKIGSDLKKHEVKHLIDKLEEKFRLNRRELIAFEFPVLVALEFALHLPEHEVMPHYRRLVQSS
B4: Mothers against decapentaplegic homolog 4 (Homo sapiens), Q13485 (parent)
chain: B1 chain
partner: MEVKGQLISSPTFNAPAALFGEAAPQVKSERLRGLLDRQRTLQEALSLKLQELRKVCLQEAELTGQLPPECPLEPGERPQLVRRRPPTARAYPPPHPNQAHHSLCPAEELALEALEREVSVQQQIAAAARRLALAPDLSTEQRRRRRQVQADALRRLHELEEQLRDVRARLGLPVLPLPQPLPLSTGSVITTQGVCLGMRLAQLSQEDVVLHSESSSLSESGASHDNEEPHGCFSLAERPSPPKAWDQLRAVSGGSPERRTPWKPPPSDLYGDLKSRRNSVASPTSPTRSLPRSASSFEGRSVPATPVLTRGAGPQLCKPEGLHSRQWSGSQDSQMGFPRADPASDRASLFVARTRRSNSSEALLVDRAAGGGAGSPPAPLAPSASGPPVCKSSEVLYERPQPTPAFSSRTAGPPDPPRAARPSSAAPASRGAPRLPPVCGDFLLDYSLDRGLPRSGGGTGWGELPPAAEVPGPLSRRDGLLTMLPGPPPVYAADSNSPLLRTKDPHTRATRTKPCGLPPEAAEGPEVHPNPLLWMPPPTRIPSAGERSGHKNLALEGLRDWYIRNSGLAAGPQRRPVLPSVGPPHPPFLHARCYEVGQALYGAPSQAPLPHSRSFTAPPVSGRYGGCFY
B5: Mothers against decapentaplegic homolog 4 (Homo sapiens), Q13485 (parent)
chain: B1 chain
partner: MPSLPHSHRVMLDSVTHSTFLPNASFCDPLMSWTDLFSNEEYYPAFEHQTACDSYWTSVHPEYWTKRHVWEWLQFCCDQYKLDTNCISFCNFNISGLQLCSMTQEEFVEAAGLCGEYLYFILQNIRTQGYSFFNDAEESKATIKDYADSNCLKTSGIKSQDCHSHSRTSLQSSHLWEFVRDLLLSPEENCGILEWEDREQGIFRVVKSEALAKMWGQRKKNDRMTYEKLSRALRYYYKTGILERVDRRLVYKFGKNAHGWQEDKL

Variants of: B1
Conditions: with 1433t_human YWHAQ

| Variant | effect of a mutation on the interaction |
| --- | --- |
| R361H | with no effect |

Variants of: B2
Conditions: with acv1b_human ACVR1B

| Variant | effect of a mutation on the interaction |
| --- | --- |
| G386D | with no effect |

Variants of: B2
Conditions: with acv1b_human ACVR1B
Remark: another data set of the same source

| Variant | effect of a mutation on the interaction |
| --- | --- |
| G386D | increasing interaction strength |

Variants of: B2
Conditions: with acv1b_human ACVR1B
Remark: another data set of the same source

| Variant | effect of a mutation on the interaction |
| --- | --- |
| R361C | with no effect |

Variants of: B2
Conditions: with acv1b_human ACVR1B
Remark: another data set of the same source

| Variant | effect of a mutation on the interaction |
| --- | --- |
| R361H | with no effect |

Variants of: B3
Conditions: with cabl1_human CABLES1, Q8TDN4

| Variant | effect of a mutation on the interaction |
| --- | --- |
| G386D | with no effect |

Variants of: B4
Conditions: with cc120_human CCDC120, Q96HB5

| Variant | effect of a mutation on the interaction |
| --- | --- |
| G386D | with no effect |

Variants of: B4
Conditions: with cc120_human CCDC120, Q96HB5
Remark: another data set of the same source

| Variant | effect of a mutation on the interaction |
| --- | --- |
| G386D | increasing interaction strength |

Variants of: B4
Conditions: with cc120_human CCDC120, Q96HB5
Remark: another data set of the same source

| Variant | effect of a mutation on the interaction |
| --- | --- |
| R361C | with no effect |

Variants of: B5
Conditions: with elf5_human ELF5, Q9UKW6

| Variant | effect of a mutation on the interaction |
| --- | --- |
| G386D | with no effect |

Variants of: B5
Conditions: with elf5_human ELF5, Q9UKW6
Remark: another data set of the same source

| Variant | effect of a mutation on the interaction |
| --- | --- |
| R361C | with no effect |
